In the DeepSol protein solubility set:

Assay: soluble on expression in E. coli; label from the status in PepcDB or PDB records

Soluble on expression in E. coli, not soluble:
MGSDKIHHHHHHMSTSAPINRRLTKKIYVGDVAIGGDAPISVQSMTNTDTCDVAATVAQIERCVEAGADLMRVSTPTMDTVKAFGEIRKLVSVPLIADVHFDHKIALAVAAAGADCLRINPGNIGSDAKVREVVACAKHYNIPIRIGVNAGSLEKDIQRKYKEPNGAAMLESAMRHIDILERLNFDQYKVSVKASNVFLTMDAYRLISAQIDNPLHLGVTEAGVYRTGSVKSAIALGGLLLDGIGDTIRISLAAEPEEEIKIGFDILKSLNIRSNGVNFIACPSCSRQEFDVIRVMTALESRLEDIREPMNLSVIGCKVNGPGEAKEADIGIVGAAPKSLVYRMGEKSHLIDTDNLVDEIEGMVRAHAEELAKKRENEIIRVR, MGSDKIHHHHHHMSVETKLTIDKEYVQSFSDARNEPQWFKDIRLKGFELVETLELPKPDKTKITSWNFTNFDHKLPEVSPVASIDELRDEVKGLIGEASDTQNLLVQRDATVVYSKLDEALKAKGVIFTDLLTAVKEHGDLVEKYYMKDAVKVDENRLTALHAALVNGGTFIYVPRNVEIEVPLQSVFWFDTEKAGLFNHVIIVAEDNSSITYVENYASFGSEEAVANIVVEVFAGANAKVSFGAVDNLAAGVTTYVVRRAHVGRDSRVEWALGQMNDGNTVSENTTHLLGDNSWADTKTVSVGRGEQKQNFTTQIFHHGKHSEGYILKHGVMREAATSIFNGISKIEHGATKSHGEQTERVLMLSEKARGDANPILLIDEDDVTAGHAASVGKIDPIQMFYLMSRGISRAEAERLVIHGFLAPVVGQLPIESVKERLVEAIERKVK, MGSDKIHHHHHHMSVISENVKYFRKQLGFTQEQLAQRIGIKRSLLGAYEEGRAEPGLETLTILARLFETTVDALISETLSDPGKRKEAMSKDIEGKKLRVLAITVDKDDKENIQLVPEKAAAGYLNGYADPEYVAELPQFYLPIFSGSGTYRAFEIKGDSMLPLASGSLIIGQYVDNWSSVKDQQTYILVTATEGIVYKRIYNNIKKNETLKLVSDNPAYEPYDIHVENVIEIWESKAYISTDFPKPDMSVEKLTAIVSGLQKQMNKLSND, MGSDKIHHHHHHMSWHNKVVWNEGLFLLPQLFQQQERYFEYFAHKRAAVLSPFFWGFSRYEIDQESLSFGKLVFKSGAGIFPDGTPFDVPGHTPPPPPLTIAAEHQDQVIYLAVPLRLPNTEETAFDEQAGSLARYSAFEIELRDSNAIGQGPKPVQLANMRLRLLPEKELTQSWIGIALTRVKTLHADGSVALYDGDHIPPVSQYGANPLLREWATQLHGLAKLRADALATRLSGSDGRAGAAAEVADYLLLQVLNRYEPLLEHICRIREMPPVTLYRELSMLAGELSTFVRPQTRRPRPTPGYDHAQLYASIRPLVDEVHYLLNQVLIRGAQPIPLTEQPHGIRVATMLPSELAGYSSLVLAVGAQMSPDVLQQQFASQTKISHPQRLPELIRSHLPGMTMIPLPVPPRQIPFNSSYIYYELSRTGPFWEQIAQQGGLAMHIAGHFPELKLELWGVRHK, MGSDKIHHHHHHMSYTTNKQPQGYPYFVTSKLREDMIGELVAINDYSFIISNSNIKEINDVLYHIRQEEHNHYGMLLELLRKYDPMEMDAYLRVIAHTTLTPVKEYLTVNSGITDKLLLNYLREGAKGELEAIILYEQHLAEIPYSDIRETLQKIVYEEKEHLEELTLVLINYDKDKYGSIKK, MGSDKIHHHHHHMTAFSFLGDKYHDHDLFLETLKYALNCEINDLRPEDFPEIRKLPDLVVIGRWNLLDDETPWLKEGDIKILVDYVRSGGKLFVWHSGLARFPESYNGLVGGRFIHHPPQKKVRYYGKDIEFELVDEHYFVDLYSDVEIFLWSESDDGTSIAGWRRRYHNGKILALTPAHSEGLKDQVFRDFLKKVLNTFVNQTSW, MGSDKIHHHHHHMTAKTFELGPGYTISRVIRGGWQLAGGHGAIDRSQAVTDLIATFDAGIWTYDCADIYTGVEELIGAARLRLASERGLDVAAKMKVHTKLVPDLERLATISRDYIRGIVEQSLRRLKTERLDLVQFHWWDYDQPRYVEAMGWLDELRREGKVRNLGTTNFDTPRLAEILAAGIPLVSQQLQYSVLDQRPAHSLAELAAKNGVSFLCYGSVAGGFLSDKWLGVAEPATPLENRSLVKYKLIIDDFGGWDLFQQLLQALKAVGDRHGVDIATIASAWVLKQPRVAAVIVGARNQAHALANARIMDVALDADDRAKIAAVIAQSQGPLGDVYTLERDRHGRHGSIMHYNLNAGRT, MGSDKIHHHHHHMTANEKKDLAHARVSASDGADAWVRFTVAGKRFDMPVVINASTRSLGASIIVNRMLSRRAPNDARPLMLVTQHITSRMADDLIAKGIPFLDTAGNAYLHEPEATIMIVGRDKPALNLKNPTSRSTTPKGLRVTFALLTQPGLVHAPYRTIADRSAVALNTVNLAMDDLIYRGLVVHKGARRVIADRRRLIEEWASLFPTRLRPKLSPCRFTSWTKESNWWSRPEILDIDARLGGEAGADILTHEIKPASLTIYSHRGITPRLMLNGMLRPDDRGNVEVLETFWPAKAEEGWNLPHREVVHPLLIYSDLITSGDDRNRAVAQTIYDRYLAKERA, MGSDKIHHHHHHMTASLLTFAKGGVHPPESKEITEHLAIEKMPLPAQVEIPLLQHFGAPCQPLVNKKDRVEEGDLIGQVQGLGANVHASITGTVTNVGTSIGPTSLNIPSVTIDRDTEAPDKIYTPSDWRGLSPQELLQKIKDGGIVGIGGAGFPAHVKLSPPPDAKVDTLVLNGAECEPYLTCDHRVMLEKPEEVVEGAKILLHVLGIKDCYIGVESNKNDAIDALRKTIEQQKLDGVKIQVSPLKVKYPQGSEKQLIESTTGRKVPGGGLPFDVGVIVQNVGTAKAVFDAVVLNKPLYEKVITISGRGISRPANLQVRIGTRIRDIVEYLGGTKADLAKIVMGGPMMGFAVSSLDIPVTKTCSGILFLTRDEIDEQPYGPCIRCGWCVEACPMGLSPNEIGLYVEAGRAADTAPFGVFDCFECGSCAFVCPAKRPLVQFIRLAKQKARK, MGSDKIHHHHHHMTDAVEILGAERSGRWVVTCDHACNRVPDDVAGGDLGLPPADMARHIAYDVGALGVARAMGEALNGPVVTSRFSRLVIDPNRGEDDPTLLMQIYDGSIIPANRGASQAEIDRRLDRFHRPYHRALAHVIAQRDDPIVVAIHSFTPQLIGRAPRPWHVSVLYAGDTRLPYPLLARLRDEDDLCVGDNEPYSGHLPGDALDRHGVQPGRLHVLIEVRNDLIETAEDQARWGVRLAQMLEAAATSADL, MGSDKIHHHHHHMTDPDIGDSQDHANIISILQDLGLTENESRVYILLLEYGSMAAQDILRYLPLRQPQLYDITSSLERKGFINVLLGRPKKYEAIDPEAVVEAREQILSRNRRYFLTWANRAMETRRETTALINAKNIRSVINNSIDLINETEKTLEIETTQELFAYIREPILRKIREGCRVEILFFGTDVDLEKVQNQFTDLDVDVRYVSPGQFFTVISDEKNSVFMPRSVAMNTDIERYGYVIRDKDMSWFITHNFFVGWYRGNRIKDHSVVAPYTYHSQRILISDLKRIFDQKGRVHGVLEGIVRSTGDRFTSEGEISEINSDTEIINFVFKTDRGEYTVGGYDSQIEDIVMKSFTVASFG, MGSDKIHHHHHHMTDSPHTIRNPAAPLAERLRPRTLDDVVGQSHLLGPGKPLRLAFESGKPHSMILWGPPGSGKTTLARLMAHAFDAEFIAISAVLSGVKDIREAIERAQITLQRTGRATLLFVDEVHRFNKAQQDAFLPHVEQGLITFIGATTENPSFEVNGALLSRAQVYALKALTDQELHQLFERARSIAMLDLEFENTAIELLIGFADGDARRLLNLLEQVQNAAETEEIIKIDADYLSRVLARNVRRFDKGGDAFYDQISALHKSIRGSSPDAALYWLCRMLDGGADPRYIGRRLVRTATEDIGLADPRALTLALNACEVFERLGSPEGELALAQATLYLACAPKSNAAYVAYKQARAFIKEDISRPVPIHLRNAPTRLMREMGHGAAYRYAHDESESYAAGENYFPDNILAVQFYRPTTHGLEAKIGEKLAYLRSLDEKTGKKRN, MGSDKIHHHHHHMTDSTIDALNKKLDRLIEAVGRLAPPPVPETDLAEADCFVWQADPGYLEPVRKVNRVDIGLIRGVDRVRDILVDNTERFAAGFAANNVLLWGARGMGKSSLVKAVHAEINAKSKSQKAKSDLPLKLIEIHREDIDTLPKLMGLLKAAPFRVILFCDDLSFDHDDTSYKSLKAALEGGVEGRPANVIFYATSNRRHLLPRDMIDNERSTAINPSEAVEEKVSLSDRFGLWLGFHKCSQDEYLEMVNAYASHHGLDIDPEQLRAEALEWATTRGSRSGRVAWQFTQDLAGRLGKPLKD, MGSDKIHHHHHHMTDVTQGRIPHAVYIDPGLPEYRDNPLIASLPPIFDTKQVITKLRLKPLYDSAERNLDGRLRVHAIARLLNRFFQPLSHHLELEQKISLILRQGYLGRNPEQGSYHLHLQNGFKRIQEEDLDAFVFDQARSSANSLSLFGCSGCGKSVTINRILSVYEQAIFHPEHNITQLTYLKIECPVDGDLDELCLSFFNEVDRVLHTQYSTSHGRKKLGTKRLMASMCQIANLHALGVLIIDEVQNLNEAKSGGAEKMHNFFVSLVNTIGVPVIQVGTHRARKFFQRTFRAARRITGFGSLLWDRLPNDHQWRQLLKLLWQYQWLRSAEPINDELVGTMYDLTQGVMDIVVKLYVLAQVRAIVTGMERITSELLKQVYHDEFKPVHPMLAALRSNNPGLLEQYDDLLMPEIEARMLSMVSSLEQADTYVDRPEISTDKSKKLLVLLSQMDIPEDIAIPLVDRVISRHPELSVAALMHKVTEYTADVTAEPPKINRIKRTQWLELPTNDLRYLYASSDKNNVYQLFKNQGLIYDLKSVSNRTG, MGSDKIHHHHHHMTEATYYFIGIKGSGMSALALVLHDLGHQVLGSDITQYTFTQKGLAAAGIKMLPFDPANLKPGYTVIAGNSFTDDHPEIKRAKELGLTIYRYHEFLGKLIEGYTSIGVAGAHGKTSTTGLLAHTLSGVAKTSYLIGDGTGKGIPDSKFFVFEADEYRRHFLAYHPDYMIMTNIDFDHPDYYTGFEDVYDAFETEANQVKKAIVAWGDDPWLRKLKAKVPVYYYGISDRDDFQARNVDRDTKGSSFDAYFHDQLIGHFFVPLFGEHSVLNALAVVAVAHMEKLDAKLIARELGNFSGVKRRFAEKDLKDMIIVDDYAHHPNEIKATLDAARQKYPDKAIIAVFQPHTFSRTQAYEPQYVQVLSQADQTFLTPIFSSAREKTGKIRSEDITAQIKGAAVIHQEDMKPLLQYHNAVVVFMGAGDIQKYEKAYETILAEE, MGSDKIHHHHHHMTEGISIAVLDNDSWSLRAIARWIDGSSPLYHVIWQTTSAAEAIHRCIYTNDKPNVLLLDMALNDATGISVCTQIRKRTADIGIIGITAYDPERYKTDLALAGGQALIAKENLAHVCNKVLPIVAQGKSAEPNSFPTAKQAHDILAEQPSSFSQIKQLSPRELQVLRLYTQNNNTSEIASQLGISSNTVFSYIHRVSKKIGTKNRSEIIRLCKKYDIL, MGSDKIHHHHHHMTEKFNRQRAENLIAIANQFAQLGKVTAVKAFGSGNINDTFLVTLDSSKEQHFVLQRINTQVFRQPKLIMQNMRTFTEHVHKRLQHTPLNRRWEVPRVLLTKDAQDHCQDSDGSFWRAISFIEGSQSFDTMRDRSQAKEIGYALGMFHNLISDLPPEKLADTLQGFHITPLYLQHYEEVLAKTSASQSSEVNYCLQFVSDRQAFAHILENAKAEGKLPLRLMHGDPKINNVMFDTVTQQAVSVIDLDTVKPGLVHYDIGDCLRSGCNQAGEETENWESVHFDPGLCQGILQGYLSVAKAFLTENDYAYIYDAIRLIAFELGLRFFADYLAGNVYFKVKHPEHNLARAIVQFKLTESIESQETQIRNIIKDMK
